13 molecules from US20240124576A1 (SHANGHAI JEMINCARE PHARMACEUTICAL, published 2024) can be followed below.

Test [1] deals with T1, biotinylated human Siglec-15 protein (Acrobiosystems, Cat. No. SG5-H82E9) (human, UniProt Q6ZMC9 20-263, biotinylated).
T1 construct: Bought reagent; also called HS-15 Biotin; human S-15 Biotin
T1 sequence (looked up): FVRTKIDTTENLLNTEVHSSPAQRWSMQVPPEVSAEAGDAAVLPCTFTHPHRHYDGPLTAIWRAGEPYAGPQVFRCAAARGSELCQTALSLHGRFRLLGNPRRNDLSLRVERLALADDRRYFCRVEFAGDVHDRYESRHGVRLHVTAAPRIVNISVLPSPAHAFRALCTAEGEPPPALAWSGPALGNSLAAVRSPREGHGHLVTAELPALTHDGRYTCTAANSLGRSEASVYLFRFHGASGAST
The experiment in a line: flow cytometry of yeast-displayed Fab, 1 nM HS-15 Biotin 30 min, 2 h wash. How it is done:
After sequencing analysis, the single clone with single sequence was identified by flow cytometry staining, incubated with 1 nM HS-15 Biotin for 30 min, respectively, and washed with 1 mL 1×PBSA for 2 h at room temperature; after flow cytometry analysis, the fluorescence intensity of different clones binding to antigen was compared.
Background: A flow cytometer gives signals particle by particle.

For test [2], the target named is T2, human Siglec-15 (Acro, Cat. No. SG5-H52H3) (human, UniProt Q6ZMC9 20-263).
T2 construct: Bought reagent used as the analyte in the Octet assay; also called antigen
T2 sequence (looked up): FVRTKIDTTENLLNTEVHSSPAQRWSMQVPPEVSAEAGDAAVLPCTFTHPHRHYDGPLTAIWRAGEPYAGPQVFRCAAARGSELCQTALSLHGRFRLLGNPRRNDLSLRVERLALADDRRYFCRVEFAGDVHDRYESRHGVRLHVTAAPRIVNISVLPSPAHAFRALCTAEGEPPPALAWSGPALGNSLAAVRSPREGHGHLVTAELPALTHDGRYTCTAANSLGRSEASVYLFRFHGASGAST
The experiment in a line: BLI (Octet RED96e), antibody captured on AHC sensor, 30 nM antigen, 1:1 fit; second assay. The arrangement: Response value: unit not given here. The method, then: Affinity of Siglec-15 binding protein of the present application to human Siglec-15 (Acro, Cat. No.: SG5-H52H3) was determined using Octet RED96e (Fortebio), both of the antigen and the Siglec-15 binding protein of the present application were diluted with 1×PBST (1×PBS: Sangon, B548117-0500; 0.02% Tween 20: Sigma-aldrich, P1379). The antigen is used at a concentration of 30 nM and the Siglec-15 binding protein of the present application is used at a concentration of 33.3 nM.
First, a sample was added to a 96-well plate (Greiner bio-one, 655209) in a system of 200 μL/well. Software parameters were then set, the plate temperature was set to 30° C., and the frequency at which the standard kinetic signal was collected was 5.0 Hz. Next, the AHC sensor (Fortébio, Cat. No.: 18-0015) was pre-wetted with 1×PBST for 10 min, then the sample was loaded on the machine for detection, with each cycle containing the following steps: 1) immersing the sample in buffer for 60 s; 2) detecting whether the antigen has non-specific binding to the sensor; 3) regenerating in a 10 mM glycine solution at pH 1.7; 4) immersing in buffer for 60 s; 5) immobilizing the Siglec-15 binding protein of the present application on the sensor for 20 s; 6) immersing the sensor in buffer for 180 s; 7) binding the antigen to the Siglec-15 binding protein of the present application for 180 s; 8) dissociating the antigen with Siglec-15 binding protein of the present application for 10 min; and 9) regenerating the sensor.
The equilibrium dissociation constant (KD) of the Siglec-15 binding protein of the present application was calculated by determining the binding rate constant (kon) and dissociation rate constant (kdis) of the antigen-Siglec-15 binding protein of the present application in a 1:1 binding manner using Data Analysis 12.0 software fromx Fortebio.

B1: Ab0 parent sequence displayed on yeast in the form of Fab (Fab, V domains shown)
VH: EVQLLESGGGLVQPGGSLRLSCAASGFTFSSYAMSWVRQAPGKGLEWVSTISGGGGSTYYADSVKGRFTISRDNSKNTLYLQMNSLRAEDTAVYYCAKAIGSSWYSDAFDLWGQGTMVTVSS
VL: DIQMTQSPSSVSASVGDRVTITCRASQDISSWLAWYQQKPGKAPKLLIYVASSLQSGVPSRFSGSGSGTDFTLTISSLQPEDFATYYCQQSYSIPYTFGQGTKLEIK
As to B1, in test [1], the “Binding MFI” value was 52.2 MFI and the “Binding force (Displaying MFI/Binding MFI) *10000” value came to 219.

B2: Ab3, purified Siglec-15 binding protein in the form of IgG1 (antibody, V domains shown)
VH: EVQLLESGGGLVQPGGSLRLSCAASGFTFSSYAMSWVRQAPGKGLEWVSTITGGGESTYYADSVKGRFTISRDNSKNTLYLQMNSLRAEDTAVYYCAKAIGSSWYSDAFDLWGQGTMVTVSS
VL: DIQMTQSPSSVSASVGDRVTITCRASQDISSWLAWYQQKPGKAPKLLIYVASSLQSGVPSRFSGSGSGTDFTLTISSLQPEDFATYYCQQSYSIPYTFGQGTKLEIKR
notes: Expressed in ExpiCHO cells in the form of IgG1
The Kd is the free concentration of one partner at which half of the binding sites on the other are occupied at equilibrium, for simple one-to-one binding. For orientation: koff means the rate constant with which the complex falls apart. What is called kon is a measure of how fast the partners come together. Consider B2, for which, in test [2], the Kd was 44.4 pM, the Response value came to 0.288, the koff came to 1.95e-05 s⁻¹ and the kon is 440000 M⁻¹ s⁻¹.

B3: Ab7 (clone YC33D5) displayed on yeast in the form of Fab (Fab, V domains shown)
VH: EVQLLESGGGLVQPGGSLRLSCAASGFTFSSYAMSWVRQAPGKGLEWVSTISGGGVYTYYADSVKGRFTISRDNSKNTLYLQMNSLRAEDTAVYYCAKAIGSSWYSDAFDLWGQGTMVTVSS
VL: DIQMTQSPSSVSASVGDRVTITCRASQDISSWLAWYQQKPGKAPKLLIYVASSLQSGVPSRFSGSGSGTDFTLTISSLQPEDFATYYCQQSYSIPYTFGQGTKLEIK
Turning to B3, in test [1], the “Binding MFI” value worked out at 113 MFI and the “Binding force (Displaying MFI/Binding MFI) *10000” value was 455.

B4: Ab13, purified Siglec-15 binding protein in the form of IgG1 (antibody, V domains shown)
VH: EVQLLESGGGLVQPGGSLRLSCAASGFTFSSYAMSWVRQAPGKGLEWVSTITGGGESTYYADSVKGRFTISRDNSKNTLYLQMNSLRAEDTAVYYCAKAIGSSWYSDAFDLWGQGTMVTVSS
VL: DIQMTQSPSSVSASVGDRVTITCRASQDISSWLAWYQQKPGKAPKLLIYVASFEHRGVPSRFSGSGSGTDFTLTISSLQPEDFATYYCQQSYSIPYTFGQGTKLEIKR
notes: as for B2
Regarding B4, in test [2], the Kd came to 68.1 pM, the Response value is 0.305, the koff turned out to be 3.79e-05 s⁻¹ and the kon amounted to 556000 M⁻¹ s⁻¹.

B5: Ab7, purified Siglec-15 binding protein in the form of IgG1 (antibody, V domains shown)
VH: EVQLLESGGGLVQPGGSLRLSCAASGFTFSSYAMSWVRQAPGKGLEWVSTISGGGVYTYYADSVKGRFTISRDNSKNTLYLQMNSLRAEDTAVYYCAKAIGSSWYSDAFDLWGQGTMVTVSS
VL: DIQMTQSPSSVSASVGDRVTITCRASQDISSWLAWYQQKPGKAPKLLIYVASSLQSGVPSRFSGSGSGTDFTLTISSLQPEDFATYYCQQSYSIPYTFGQGTKLEIKR
notes: as for B2
As to B5, in test [2], binding was put at a Kd of 5.08 pM, the Response value was 0.284, the koff stood at 1.44e-06 s⁻¹ and the kon amounted to 282000 M⁻¹ s⁻¹.

B6: Ab6 (clone YC33G4) displayed on yeast in the form of Fab (Fab, V domains shown)
VH: EVQLLESGGGLVQPGGSLRLSCAASGFTFSSYAMSWVRQAPGKGLEWVSTIWGGGGSTYYADSVKGRFTISRDNSKNTLYLQMNSLRAEDTAVYYCAKAIGSSWYSDAFDLWGQGTMVTVSS
VL: DIQMTQSPSSVSASVGDRVTITCRASQDISSWLAWYQQKPGKAPKLLIYVASSLQSGVPSRFSGSGSGTDFTLTISSLQPEDFATYYCQQSYSIPYTFGQGTKLEIK
As to B6, in test [1], the “Binding MFI” value came to 94.2 MFI and the “Binding force (Displaying MFI/Binding MFI) *10000” value amounted to 411.

B7: Ab2, purified Siglec-15 binding protein in the form of IgG1 (antibody, V domains shown)
VH: EVQLLESGGGLVQPGGSLRLSCAASGFTSSSYAMSWVRQAPGKGLEWVSTISGGGGSTYYADSVKGRFTISRDNSKNTLYLQMNSLRAEDTAVYYCAKAIGSSWYSDAFDLWGQGTMVTVSS
VL: DIQMTQSPSSVSASVGDRVTITCRASQDISSWLAWYQQKPGKAPKLLIYVASSLQSGVPSRFSGSGSGTDFTLTISSLQPEDFATYYCQQSYSIPYTFGQGTKLEIKR
notes: as for B2
For B7, in test [2], the Kd is 155 pM, the Response value amounted to 0.262, the koff was 6.96e-05 s⁻¹ and the kon amounted to 448000 M⁻¹ s⁻¹.

B8: Ab5 (clone YC33D1) displayed on yeast in the form of Fab (Fab, V domains shown)
VH: EVQLLESGGGLVQPGGSLRLSCAASGFTFSSYAMSWVRQAPGKGLEWVSTIYGGGGSTYYADSVKGRFTISRDNSKNTLYLQMNSLRAEDTAVYYCAKAIGSSWYSDAFDLWGQGTMVTVSS
VL: DIQMTQSPSSVSASVGDRVTITCRASQDISSWLAWYQQKPGKAPKLLIYVASSLQSGVPSRFSGSGSGTDFTLTISSLQPEDFATYYCQQSYSIPYTFGQGTKLEIK
For the molecule B8, in test [1], the “Binding MFI” value came out at 135 MFI and the “Binding force (Displaying MFI/Binding MFI) *10000” value was 480.

B9: Ab3 (clone YC33B2) displayed on yeast in the form of Fab (Fab, V domains shown)
VH: EVQLLESGGGLVQPGGSLRLSCAASGFTFSSYAMSWVRQAPGKGLEWVSTITGGGESTYYADSVKGRFTISRDNSKNTLYLQMNSLRAEDTAVYYCAKAIGSSWYSDAFDLWGQGTMVTVSS
VL: DIQMTQSPSSVSASVGDRVTITCRASQDISSWLAWYQQKPGKAPKLLIYVASSLQSGVPSRFSGSGSGTDFTLTISSLQPEDFATYYCQQSYSIPYTFGQGTKLEIK
Turning to B9, in test [1], the “Binding MFI” value worked out at 188 MFI and the “Binding force (Displaying MFI/Binding MFI) *10000” value was 658.

B10: Ab6, purified Siglec-15 binding protein in the form of IgG1 (antibody, V domains shown)
VH: EVQLLESGGGLVQPGGSLRLSCAASGFTFSSYAMSWVRQAPGKGLEWVSTIWGGGGSTYYADSVKGRFTISRDNSKNTLYLQMNSLRAEDTAVYYCAKAIGSSWYSDAFDLWGQGTMVTVSS
VL: DIQMTQSPSSVSASVGDRVTITCRASQDISSWLAWYQQKPGKAPKLLIYVASSLQSGVPSRFSGSGSGTDFTLTISSLQPEDFATYYCQQSYSIPYTFGQGTKLEIKR
notes: as for B2
Regarding B10, in test [2], the Kd was 8.43 pM, the Response value is 0.285, the koff is 2.87e-06 s⁻¹ and the kon was found to be 340000 M⁻¹ s⁻¹.

B11: Ab9 (clone YC29B3) displayed on yeast in the form of Fab (Fab, V domains shown)
VH: EVQLLESGGGLVQPGGSLRLSCAASGFTFSSYAMSWVRQAPGKGLEWVSTISGGGGSTYYADSVKGRFTISRDNSKNTLYLQMNSLRAEDTAVYYCAKAIGSSWYSDAFDLWGQGTMVTVSS
VL: DIQMTQSPSSVSASVGDRVTITCRASQDISDWLAWYQQKPGKAPKLLIYVASSLQSGVPSRFSGSGSGTDFTLTISSLQPEDFATYYCQQSYSIPYTFGQGTKLEIK
As to B11, in test [1], the “Binding MFI” value stood at 131 MFI and the “Binding force (Displaying MFI/Binding MFI) *10000” value came out at 289.

B12: Ab2 (clone YC32A6) displayed on yeast in the form of Fab (Fab, V domains shown)
VH: EVQLLESGGGLVQPGGSLRLSCAASGFTSSSYAMSWVRQAPGKGLEWVSTISGGGGSTYYADSVKGRFTISRDNSKNTLYLQMNSLRAEDTAVYYCAKAIGSSWYSDAFDLWGQGTMVTVSS
VL: DIQMTQSPSSVSASVGDRVTITCRASQDISSWLAWYQQKPGKAPKLLIYVASSLQSGVPSRFSGSGSGTDFTLTISSLQPEDFATYYCQQSYSIPYTFGQGTKLEIK
Turning to B12, in test [1], the “Binding MFI” value came to 133 MFI and the “Binding force (Displaying MFI/Binding MFI) *10000” value is 441.

B13: Ab5, purified Siglec-15 binding protein in the form of IgG1 (antibody, V domains shown)
VH: EVQLLESGGGLVQPGGSLRLSCAASGFTFSSYAMSWVRQAPGKGLEWVSTIYGGGGSTYYADSVKGRFTISRDNSKNTLYLQMNSLRAEDTAVYYCAKAIGSSWYSDAFDLWGQGTMVTVSS
VL: DIQMTQSPSSVSASVGDRVTITCRASQDISSWLAWYQQKPGKAPKLLIYVASSLQSGVPSRFSGSGSGTDFTLTISSLQPEDFATYYCQQSYSIPYTFGQGTKLEIKR
notes: as for B2
In test [2], B13 showed a Kd of 7.6 pM, a Response value of 0.277, a koff of 2.57e-06 s⁻¹ and a kon of 338000 M⁻¹ s⁻¹.
